The target in the assay is T1, Human Siglec-9 (human, UniProt Q9Y336 18-463).
T1 construct: On transfected CHO cells; also on YTS and KHYG-1 transfectants, primary NK cells and moDC; also called huSiglec-9; CD329
In words: flow cytometry, CHO Siglec-9 cells, mean n = 2. The procedure:
Binding of humanized antibodies was tested on CHO cells transfected with human Siglec-9, in a titration experiment by flow cytometry. Cells were incubated 90 minutes at 37° C. in Staining Buffer (SB) with primary antibodies at 10 ug/ml and a series of dilution of 1:10. They were washed three times with SB, then incubated 30 minutes with a goat F(ab′)² Anti-human IgG (Fc) PE. EC₅₀ values (μg/ml) for Siglec-9 expressing cells are shown below.
A general note: Flow cytometry measures light scatter and fluorescence of single cells or particles in a stream.

Positions count from the first letter of the chain named.

T1 sequence (Q9Y336 18-463): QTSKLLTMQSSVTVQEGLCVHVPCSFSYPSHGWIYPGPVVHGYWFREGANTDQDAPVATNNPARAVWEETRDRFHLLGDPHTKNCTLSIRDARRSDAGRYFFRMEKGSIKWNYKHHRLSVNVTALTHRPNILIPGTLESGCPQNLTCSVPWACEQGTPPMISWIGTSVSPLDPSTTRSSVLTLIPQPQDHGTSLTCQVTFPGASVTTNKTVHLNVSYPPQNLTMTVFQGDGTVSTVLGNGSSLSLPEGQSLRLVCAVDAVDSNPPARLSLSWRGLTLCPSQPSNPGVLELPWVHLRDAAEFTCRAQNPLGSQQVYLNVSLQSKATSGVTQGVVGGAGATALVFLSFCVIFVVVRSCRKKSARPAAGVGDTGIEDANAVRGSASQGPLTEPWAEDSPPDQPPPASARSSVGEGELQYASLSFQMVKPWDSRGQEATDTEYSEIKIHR

B1: mAbD H1L1 (antibody, V domains shown)
VH: QVQLVQSGSELKKPGASVKVSCKASGYTFTDYSMHWVRQAPGQGLKWMGWIITETGEPTYADDFRGRFVFSLDTSVSTAYLQISSLKAEDTAVYYCARDFDGYWGQGTTVTVSS
VL: DIQMTQSPSSLSASVGDRVTITCRASENIYSYLAWYQQKPGKAPKFLIYNAKTLTEGVPSRFSGSGSGTDFTLTISSLQPEDFATYYCQHHYGFPWTFGGGTKVEIK
notes: constant region not specified
The EC50 is the concentration needed to bring the measured effect to its halfway point. A high value points to lower potency in that assay. Consider B1, for which the response was half-maximal at 0.015 mg/L (EC50).

B2: mAbD H2L1 (antibody, V domains shown)
VH: B1 VH with Y95F
VL: B1 VL
notes: constant region not specified
For B2, the midpoint of the response, the EC50, lay at 0.016 mg/L.

B3: mAbD H1L2 (antibody, V domains shown)
VH: B1 VH
VL: B1 VL with S63R
notes: constant region not specified
As to B3, a half-maximal effect (EC50) was put at 0.019 mg/L.

B4: mAbD H0L1 (antibody, V domains shown)
VH: B1 VH with K46E
VL: B1 VL
notes: constant region not specified
Take B4: the EC50 amounted to 0.01 mg/L.

B5: mAbD H2L2 (antibody, V domains shown)
VH: B1 VH with Y95F
VL: B1 VL with S63R
notes: constant region not specified
Take B5: the EC50 was 0.021 mg/L.

B6: mAbD H0L2 (antibody, V domains shown)
VH: B1 VH with K46E
VL: B1 VL with S63R
notes: constant region not specified
B6 registered an EC50 of 0.02 mg/L.

B7: mAbD H2L0 (antibody, V domains shown)
VH: B1 VH with Y95F
VL: B1 VL with F46L
notes: constant region not specified
For B7, a half-maximal effect (EC50) was put at 0.03 mg/L.

B8: mAbD H1L0 (antibody, V domains shown)
VH: B1 VH
VL: B1 VL with F46L
notes: constant region not specified
B8 returned an EC50 of 0.019 mg/L.

B9: mAbD H0L0 (antibody, V domains shown)
VH: B1 VH with K46E
VL: B1 VL with F46L
notes: constant region not specified
Molecule B9 displayed an EC50 of 0.019 mg/L.

B10: mAbA H1L1 (antibody, V domains shown)
VH: QVQLVQSGAEVKKPGSSVKVSCKASGGTFSSYWMHWVRQAPGQGLEWMGEINPSNGHTNYNEKFESRVTITADESTSTAYMELSSLRSEDTAVYYCANGVESYDFDDALDYWGQGTTVTVSS
VL: DIQMTQSPSSLSASVGDRVTITCRASQDINNYLNWYQQKPGKAPKLLIYYTSRLHSGVPSRFSGSGSGTDYTFTISSLQPEDIATYYCQQGNTLPFTFGGGTKVEIK
notes: constant region not specified
Molecule B10 had an EC50 of 0.033 mg/L.

B11: mAbA H0L2 (antibody, V domains shown)
VH: B10 VH with N98R
VL: B10 VL with P44I
notes: constant region not specified
B11 registered an EC50 of 0.034 mg/L.

B12: mAbA H1L0 (antibody, V domains shown)
VH: B10 VH
VL: B10 VL with Y71F
notes: constant region not specified
Regarding B12, the midpoint of the response, the EC50, lay at 0.045 mg/L.

B13: mAbA H1L2 (antibody, V domains shown)
VH: B10 VH
VL: B10 VL with P44I
notes: constant region not specified
Molecule B13 had an EC50 of 0.037 mg/L.

B14: mAbA H0L1 (antibody, V domains shown)
VH: B10 VH with N98R
VL: B10 VL
notes: constant region not specified
Molecule B14 yielded an EC50 of 0.013 mg/L.

B15: mAbA H2L0 (antibody, V domains shown)
VH: B10 VH with G26Y, G27F
VL: B10 VL with Y71F
notes: constant region not specified
The molecule B15 gave an EC50 of 0.034 mg/L.

B16: mAbA H3L0 (antibody, V domains shown)
VH: B10 VH with G26Y, G27F, E74R
VL: B10 VL with Y71F
notes: constant region not specified
In turn, B16 gave an EC50 of 0.12 mg/L.

B17: mAbA H3L2 (antibody, V domains shown)
VH: B10 VH with G26Y, G27F, E74R
VL: B10 VL with P44I
notes: constant region not specified
Turning to B17, the EC50 was determined as 0.074 mg/L.

B18: mAbA H2L2 (antibody, V domains shown)
VH: B10 VH with G26Y, G27F
VL: B10 VL with P44I
notes: constant region not specified
As for B18, a half-maximal response (EC50) required 0.032 mg/L.

B19: mAbA H3L1 (antibody, V domains shown)
VH: B10 VH with G26Y, G27F, E74R
VL: B10 VL
notes: constant region not specified
Molecule B19 showed an EC50 of 0.044 mg/L.

B20: mAbA H2L1 (antibody, V domains shown)
VH: B10 VH with G26Y, G27F
VL: B10 VL
notes: constant region not specified
In turn, B20 displayed an EC50 of 0.029 mg/L.

B21: mAbA H0L0 (antibody, V domains shown)
VH: B10 VH with N98R
VL: B10 VL with Y71F
notes: constant region not specified
As to B21, the EC50 worked out at 0.04 mg/L.

Values taken from US20200369765A1 (INNATE PHARMA, published 2020).
